# Values of other authors as cited in article PMC3022668.
# Target: streptavidin (Streptomyces avidinii) (UniProt P22629)
# Sequence (P22629 25-183): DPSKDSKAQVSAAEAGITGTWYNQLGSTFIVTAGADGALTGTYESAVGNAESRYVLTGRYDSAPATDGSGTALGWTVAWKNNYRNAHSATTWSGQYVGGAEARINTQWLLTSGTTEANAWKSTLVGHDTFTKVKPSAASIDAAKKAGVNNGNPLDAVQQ
substance,measurement,value
streptavidin-binding peptide (SBP),Kd,2.5 nM
